Assay in all cases: BLI
Background: In BLI a coated tip is dipped into the sample, and binding shifts an interference pattern.

Assay [1] concerns the target T1, CPXV M2 (cowpox virus M2), recombinant, His-tagged (cowpox virus, UniProt Q8QN22 18-220).
T1 chain: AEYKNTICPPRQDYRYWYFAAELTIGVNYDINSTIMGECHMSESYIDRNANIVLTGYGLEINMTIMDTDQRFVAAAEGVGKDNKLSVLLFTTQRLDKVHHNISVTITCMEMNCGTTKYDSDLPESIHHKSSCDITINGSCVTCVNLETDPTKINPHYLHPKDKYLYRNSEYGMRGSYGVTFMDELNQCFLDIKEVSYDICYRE

The target of assay [2] is T2, MPXV M2 (monkeypox virus M2 protein), His-tagged, wild type (monkeypox virus (Clade I), UniProt Q8V554 18-220).
The target in assay [3] is T1, CPXV M2 (cowpox virus M2), recombinant, ….
Assay [4] deals with T2, MPXV M2 (monkeypox virus M2 protein), …. This is another data set of the same source.
The target in assay [5] is MPXV Bio-M2 (site-specifically biotinylated MPXV Avi-M2) (monkeypox virus (Clade I), UniProt Q8V554 18-220).

B1: mouse B7.1 ectodomain fused to human Fc (Fc fusion)
chain: VDEQLSKSVKDKVLLPCRYNSPHEDESEDRIYWQKHDKVVLSVIAGKLKVWPEYKNRTLYDNTTYSLIILGLVLSDRGTYSCVVQKKERGTYEVKHLALVKLSIKADFSTPNITESGNPSADTKRITCFASGGFPKPRFSWLENGRELPGINTTISQDPESELYTISSQLDFNTTRNHTIKCLIKYGDAHVSEDFTWEKPPEDPPDSK
The term koff denotes a measure of how fast the partners let go of each other. For orientation: Kd means the concentration at which binding is half-saturated. Regarding B1, the off-rate (koff) in assay [1] is 0.000109 s⁻¹; in assay [2] it was 2.92e-05 s⁻¹. For the same molecule, the equilibrium dissociation constant (Kd) in assay [3] came to 1.48 nM; in assay [4], 0.243 nM.

B2: mouse B7.2 ectodomain fused to human Fc (Fc fusion)
chain: VSVETQAYFNGTAYLPCPFTKAQNISLSELVVFWQDQQKLVLYEHYLGTEKLDSVNAKYLGRTSFDRNNWTLRLHNVQIKDMGSYDCFIQKKPPTGSIILQQTLTELSVIANFSEPEIKLAQNVTGNSGINLTCTSKQGHPKPKKMYFLITNSTNEYGDNMQISQDNVTELFSISNSLSLSFPDGVWHMTVVCVLETESMKISSKPLNFTQEFPSPQTYWKE
Consider B2, for which the off-rate (koff) came to 0.000363 s⁻¹ in assay [1] and 0.689 s⁻¹ in assay [2]. Also, the results for the Kd in assay [3] and in assay [4] were 8 nM and 13600 nM, respectively.

B3: human B7.1 ectodomain fused to human Fc (Fc fusion)
chain: VIHVTKEVKEVATLSCGHNVSVEELAQTRIYWQKEKKMVLTMMSGDMNIWPEYKNRTIFDITNNLSIVILALRPSDEGTYECVVLKYEKDAFKREHLAEVTLSVKADFPTPSISDFEIPTSNIRRIICSTSGGFPEPHLSWLENGEELNAINTTVSQDPETELYAVSSKLDFNMTTNHSFMCLIKYGHLRVNQTFNWNTT
For B3, in assay [2], the koff turned out to be 2.91e-05 s⁻¹.

B4: human B7.1 ectodomain, His-tagged (domain or fragment)
chain: B3 chain
As for B4, the koff in assay [5] stood at 0.00676 s⁻¹.

B5: human B7.2 ectodomain, His-tagged (domain or fragment)
chain: LKIQAYFNETADLPCQFANSQNQSLSELVVFWQDQENLVLNEVYLGKEKFDSVHSKYMGRTSFDSDSWTLRLHNLQIKDKGLYQCIIHHKKPTGMIRIHQMNSELSVLANFSQPEIVPISNITENVYINLTCSSIHGYPEPKKMSVLLRTKNSTIEYDGVMQKSQDNVTELYDVSISLSVSFPDVTSNMTIFCILETDKTRLLSSPFSIELED
B5: in assay [5], the koff amounted to 0.0334 s⁻¹.

B6: human B7.2 ectodomain fused to human Fc (Fc fusion)
chain: B5 chain
As to B6, the koff in assay [2] was 9.75e-06 s⁻¹.

(Values after PMC10457294 (2023).)
